Laboratory results: patent US8889130B2, “Treatment of osteoarthritis and pain” (Abbvie Inc., priority 2011, dated 2014)

Key:
mice (female BALB/c) = experiment: Mouse carrageenan-induced inflammatory pain model, thermal hyperalgesia (paw withdrawal latency); format: in vivo; settings: Example 8; 48 and 96 hours; single mAb 900 μg; diclofenac 30 mg/kg
Method: To evaluate whether neutralization of IL-1α and IL-1β produces antinociceptive effects in inflammatory pain conditions, anti-IL-1α and anti-IL-1β mAbs were evaluated for the ability to reverse established pain in the mouse carrageenan paw model of nociceptive pain.
The efficacy of the anti-IL-1α and anti-IL-1β mAbs was evaluated when administered alone or in combination in the mouse carrageenan model (FIG. 15). At 30 hours after intraplantar carrageenan injection: 900 μg of either anti-IL-1α mAb, anti-IL-1β mAb, or their combination were administered in different groups of mice. Thermal hyperalgesia testing was performed 48 and 96 hours after carrageenan. […] The antinociceptive effect in 900 μg combination group was 53±7% at 48 hours, and 82±11% at 96 hours.
Different groups of animals were treated either with vehicle or a combination of anti-IL-1α and anti-IL-1β mAbs (100, 300, or 900 μg/mouse of each mAb) 30 hours after carrageenan injection. […] The antinociceptive effect in 900 μg treatment group was 70±9% at 48 hours, and 62±4% at 96 hours. Diclofenac (30 mg/kg), a non-steroidal, anti-inflammatory analgesic, was included as positive control in the study, and it increased the mean paw withdrawal latency of the injured paw to 7.01±0.58 s at 48 hours and 7.48±0.34 s at 96 hours when administered p.o. 60 minutes before testing (p<0.01 at both time points).

Male SV129 mice = experiment: Destabilization of medial meniscus (DMM) model of osteoarthritis, cartilage degeneration (Chambers scores); format: in vivo, mouse; settings: Example 3.3.6 (FIG. 7); 8 weeks; mAbs 6 mg/kg alone or in combination
Description: (§1) Male SV129 mice weighing approximately 30 grams, housed 5/cage, were anesthetized on Day 0 with ketamine/xylazine cocktail, administered intraperitoneally (ip), and then the medial collateral ligament was exposed by blunt dissection, and transected to reflect the meniscus toward the femur. The joint space was closed with 8-0 vicryl suture. The skin was closed with wound glue. For sham surgeries, a vertical skin incision was made over the medial aspect of the knee and the joint capsule was opened. The capsule was closed with 8-0 vicryl suture and the skin was closed with wound glue. Groups of animals were then treated with intraperitoneal (ip) injections of antibody or vehicle according to the study design table below. Two sex-matched, age-matched, and strain-matched naïve mice were also included in the study. Animals were euthanized after 8 weeks of treatment, and knee joints were harvested in 10% neutral buffered formalin.
Formalin-fixed samples were decalcified, and specimens were sectioned in the frontal plane into 15 step sections each. Each section was approximately 6 μm thick, and step sections were separated by 70 μm. All slides were stained with toluidine blue (T. Blue). Slides were assessed according to the Chambers method (Chambers et al. (2001) Arthritis Rheum 44:1455-65) for cartilage degeneration (see below) by a board-certified veterinary pathologist. Each of the four cartilage surfaces, the medial femoral condyle (MFC), the medial tibial plateau (MTP), the lateral femoral condyle (LFC), and the lateral tibial plateau (LTP), was scored from 0-6 according to the scale in the table below.
as §1, with “8-0 vicryl suture, and the” for “8-0 vicryl suture and the”, “injections of anti-mIL-1α monoclonal antibody, anti-mIL-1β (alone or in combination), mIL-1α/βDVD-Ig binding protein, or vehicle” for “injections of antibody or vehicle”, “design table below (Table 24). Animals were” for “design table below. Two sex-matched, age-matched, and strain-matched naïve mice were also included in the study. Animals were”, “weeks of treatment and knee” for “weeks of treatment, and knee”
Male SV129 mice weighing approximately 30 grams had the medial collateral ligament exposed by blunt dissection, and transected to reflect the meniscus toward the femur. The joint space was closed with 8-0 vicryl suture. The skin was closed with wound glue. For sham surgeries, a vertical skin incision was made over the medial aspect of the knee and the joint capsule was opened. The capsule was closed with 8-0 vicryl suture, and the skin was closed with wound glue. Groups of animals were then treated per os (po) or via intraperitoneal (ip) injections of vehicle or treatments according to the study design table below. Three sex-matched, age-matched, and strain-matched naïve mice were also included in the study. Animals were euthanized after 4 weeks of treatment, and knee joints were harvested in 10% neutral buffered formalin.

B1: 10G11: mouse anti-mouse IL-1β monoclonal antibody (clone 10G11) from IL-1α/β double KO mice (antibody, V domains shown)
VH: EVQLQQSGPELVKPGTSVKMSCKTSGYTFTSYVMHWVKQKPGQGLEWIGYIIPYNDNTKYNEKFKGKATLTSDKSSSTAYMELSSLTSEDSAVYYCARRNEYYGSSFFDYWGQGTTLTVSS
VL: DIQMTQSPASLSASVGETVTITCRGSGILHNYLVWYQQKQGKSPQLLVYSAKILADGVPSRFSGSGSGTQYSLKINSLQPEDFGSYYCQHFWSTPFTFGSGTKLEIKR
modifications: heavy chain variable domain of 10G11; light chain variable domain of 10G11
notes: mouse anti-mouse IL-1β monoclonal antibody (clone 10G11) from IL-1α/β double KO mice
Q: Which results are given for B1?
A: thermal hyperalgesia / antinociceptive effect (mice (female BALB/c)): no significant antinociceptive effect; mean sum Chambers scores and mean maximum Chambers scores (cartilage degeneration) (Male SV129 mice): not statistically significant
